According to article PMC5028202 (ACS chemical biology, 2015):

Target: the molecule itself
Test: NMR structure

B1: XCL1 CC5 (A36C A49C), disulfide-locked XCL1dim variant (natural protein, UniProt P47992 22-114, looked up)
chain: VGSEVSDKRTCVSLTTQRLPVSRIKTYTITEGSLRCVIFITKRGLKVCCDPQATWVRDVVRSMDRKSNTRNNMIQTKPTGTQQSTNTAVTLTG
- stoichiometry N: 2
